The series deals with T1, CasEnd-24 (synthetic construct).
T1 chain: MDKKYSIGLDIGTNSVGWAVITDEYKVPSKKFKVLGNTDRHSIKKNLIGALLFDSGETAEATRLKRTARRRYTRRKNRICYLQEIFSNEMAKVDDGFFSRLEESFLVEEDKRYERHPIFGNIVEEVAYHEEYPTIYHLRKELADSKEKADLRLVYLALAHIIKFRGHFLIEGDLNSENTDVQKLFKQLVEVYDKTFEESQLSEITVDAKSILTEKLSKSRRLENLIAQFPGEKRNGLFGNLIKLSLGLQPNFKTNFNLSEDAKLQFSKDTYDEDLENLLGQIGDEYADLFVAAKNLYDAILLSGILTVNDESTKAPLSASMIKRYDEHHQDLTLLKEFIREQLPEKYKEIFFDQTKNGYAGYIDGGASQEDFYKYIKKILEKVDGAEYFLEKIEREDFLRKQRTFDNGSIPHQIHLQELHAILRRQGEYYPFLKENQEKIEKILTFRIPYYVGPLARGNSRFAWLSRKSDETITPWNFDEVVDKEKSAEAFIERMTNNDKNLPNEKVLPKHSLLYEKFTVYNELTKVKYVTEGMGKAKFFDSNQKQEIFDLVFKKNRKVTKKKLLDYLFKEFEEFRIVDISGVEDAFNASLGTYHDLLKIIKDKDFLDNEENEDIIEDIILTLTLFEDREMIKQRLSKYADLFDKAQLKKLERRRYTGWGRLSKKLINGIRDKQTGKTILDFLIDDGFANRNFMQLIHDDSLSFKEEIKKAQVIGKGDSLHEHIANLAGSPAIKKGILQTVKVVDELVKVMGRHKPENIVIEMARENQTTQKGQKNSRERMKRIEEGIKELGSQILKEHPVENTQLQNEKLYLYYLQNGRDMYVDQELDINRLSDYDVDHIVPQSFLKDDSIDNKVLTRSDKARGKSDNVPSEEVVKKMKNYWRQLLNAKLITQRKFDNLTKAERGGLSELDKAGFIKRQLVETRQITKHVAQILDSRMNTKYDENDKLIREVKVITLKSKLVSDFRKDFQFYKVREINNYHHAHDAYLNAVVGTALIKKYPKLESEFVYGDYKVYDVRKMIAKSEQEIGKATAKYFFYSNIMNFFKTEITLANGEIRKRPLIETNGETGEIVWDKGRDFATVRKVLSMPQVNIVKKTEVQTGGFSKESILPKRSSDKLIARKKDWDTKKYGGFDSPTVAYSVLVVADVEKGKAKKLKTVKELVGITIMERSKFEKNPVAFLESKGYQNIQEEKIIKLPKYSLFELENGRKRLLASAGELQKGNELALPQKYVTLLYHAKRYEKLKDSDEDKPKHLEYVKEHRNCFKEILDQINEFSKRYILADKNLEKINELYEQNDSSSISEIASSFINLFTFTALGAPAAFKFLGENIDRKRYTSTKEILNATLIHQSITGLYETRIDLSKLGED
As to the kind of experiment: cell_activity; +++; HEK293T; PAM not stated. The essentials:
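BFP-to-GFP conversion via reverse transcriptase fusion with each Cas endonuclease plus template RNA: 200 ng of each plasmid nucleofected into 250,000 BFP-expressing HEK293T cells (program DS-150). Percent GFP+ cells by flow cytometry at day 4 measured editing.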

B1: BFP-to-GFP template RNA ; BFP reporter protospacer (ssRNA ; dsDNA)
RNA: GCCGAAGCACUGCACGCCGUGUUUUAGAGCUAGAAAUAGCAAGUUAAAAUAAGGCUAGUCCGUUAUCAACUUGAAAAAGUGGCACCGAGUCGGUGCACCCUGACGUACGGCGUGCAGUGCUU
DNA 1: GCCGAAGCACTGCACGCCGT
DNA 2: ACGGCGTGCAGTGCTTCGGC
As for B1, the activity is ≥ 100 % of reference.

Values taken from patent publication US20250092426, “CAS ENDONUCLEASES AND RELATED METHODS” (Flagship Pioneering Innovations VII, LLC, published 2025).
